From patent US12397037B2, “Methods and compositions for immunomodulation” (CHILDREN'S MEDICAL CENTER CORPORATION, priority 2014, dated 2025)

Columns and labels:
Assay type in all cases: cell-based, human
VEGF promoter = VEGF promoter luciferase assay in U87MG cells
Method: FIGS. 31A-31B depict U87MG cells transiently co-transfected with a full-length human VEGF promoter luciferase plasmid and a pGL4.74 [hRluc/TK] plasmid as an internal control. Cells were treated with SEMA3F (640 ng/ml for 30 minutes) prior to the addition of DFO (250 μM) or the culture of cells in a hypoxia chamber (1% 02). After 18 hours, VEGF promoter luciferase activity was analyzed. FIG. 31C depicts a graph of U87MG cells transiently cotransfected with our VEGF promoter luciferase and pGL4.74 [hRluc/TK] plasmids and with either a pcDNA3.1 empty vector or our constitutively active Akt (2DAkt). The cells were treated with SEMA3F for 30 minutes prior to the addition of DFO. After 18 hours, VEGF promoter luciferase activity was analyzed. FIG. 31D depicts a graph of parental U87MG cells treated with SEMA3F, rapamycin (10 nM), Torin 1 (10 nM) alone or in combination as indicated for 30 minutes prior to the addition of DFO, and culture supernatants were collected after 18 hours; VEGF protein levels were analyzed by ELISA. In each panel data are representative of 3 independent experiments. Bar graphs represent the mean±SD of n=3 experiments performed in triplicate, *, p<0.01 vs. control.
SEMA3F inhibits hypoxia-induced production of VEGF via the mTOR pathway. The local expression and regulation of VEGF is key to many physiological and pathological processes (40, 41). These findings indicate that SEMA3F can target the transcriptional activation of VEGF via its ability to target mTOR kinase activity (36, 42). To test the effect of SEMA3F on the regulation of VEGF expression, U87MG cells were transfected with a full-length 2.6 kb VEGF promoter-luciferase construct and exposed to the hypoxia mimetic agent desferrioxamine (DFO) or hypoxia (1% 02). […] To test the relative effect of SEMA3F on mTORC1/C2, U87MG cells transiently co-transfected with the 2DAkt construct and the full length VEGF promoter reporter construct, and the cells cultured in the absence or presence of SEMA3F. […] Finally, the effect of SEMA3F on the secretion of VEGF into conditioned media (by ELISA) was determined in the absence or presence of DFO.
Transfection and Luciferase assay: U87MG cells were transiently transfected with plasmid constructs (pcDNA3.1, WT mTOR, 2DAkt, VEGF luciferase reporter plasmid or pGL4.74 [hRluc/TK]) as indicated using Lipofectamine 2000 reagent (Life Technologies) according to the manufacturer's instructions. After 18 hours, cells were treated as outlined in each experimental design. VEGF promoter activity was analyzed using a Dual-Luciferase Reporter Assay System (Promega), and luciferase activity was normalized by Renilla luciferase as an internal control.

RhoA = RhoA activity, rhotekin pull-down, U87MG cells; conditions: SEMA3F 640 ng/ml, 10 minutes
Method: FIG. 30A depicts U87MG cells treated with SEMA3F (640 ng/ml), rapamycin (10 nM) or Torin 1 (10 nM) for 30 minutes. Subsequently, cells were stained with Alexa Fluor 488 phalloidin and Hoechst 33342 to identify F-actin cytoskeleton stress fibers and cellular nuclei, respectively. […] The scale bar indicates 20 μm. FIG. 30B depicts U87MG cells transiently transfected with a pcDNA3.1 empty vector or with a wild type (WT) mTOR plasmid and after 18 hours treated with SEMA3F (640 ng/ml) for 30 minutes. Cells were stained as described above in FIG. 30A. Representative cellular staining is shown; bar graph represents the number of fibers/cell (mean±SD) from 3 independent experiments. FIG. 30C depicts U87MG cells transfected with control siRNA or with raptor- or rictor-specific siRNAs (20 nM). […] The number of stress fibers was evaluated in 3 independent experiments and shown as the mean±SD. […] After 18 hours, the cells were treated with SEMA3F (640 ng/ml) for 10 minutes and RhoA activity was evaluated. FIG. 30E depicts U87MG cells transfected with control siRNA or with raptor- or rictor-specific siRNAs (20 nM), were treated with SEMA3F (640 ng/ml) for 10 minutes and RhoA activity was analyzed. […]
RhoA activity (39) was measured using the rhotekin pulldown assay in U87MG cells transfected with the mTOR overexpression construct (FIG. 30D). […]

[1] = system: U251 glioblastoma cells, a melanocyte cell line, Jurkat T lymphocytes, and endothelial cells; experiment: Western blot in other cell lines expressing NRP2; conditions: SEMA3F 30 minutes
Method: FIGS. 34A-34D depict analysis of intracellular signaling pathway regulated by SEMA3F. FIG. 34A depicts a Western blot of the expression of pAkt, pmTOR and pS6K in U87MG cells treated with SEMA3F or PBS for 60 minutes and. FIG. 34B depicts a Western blot. U87MG cells were transfected with control or Plexin A1-specific siRNA (20 nM). After 48 hours, cells were treated with SEMA3F (640 ng/ml) for 30 and 60 minutes, and were analyzed by Western blot. FIG. 34C depicts NRP2 and Plexin A1 expression analyzed by Western blot with multiple cell lines. FIG. 34D depicts a Western blot of multiple NRP2-expressing cell lines were treated with SEMA3F for 30 minutes. All data presented are representative of 3 independent experiments.
SEMA3F inhibits Akt, mTOR, and S6K phosphorylation. To determine the effect of SEMA3F on intracellular signaling responses, levels of phosphokinases in the NRP2-expressing human glioblastoma cell line U87MG were profiled.
Western blotting: Proteins within each sample were separated by SDS-PAGE and transferred to nitrocellulose membranes. […] After washing with TBS-T, membranes were incubated with the appropriate horseradish peroxidase-conjugated secondary antibody, and immunoreactivity was detected by using ECL detection reagents.

B1: SEMA3F: Human recombinant full-length His-Myc-tagged SEMA3F, secreted by transfected 293T cells and purified; class 3 semaphorin, NRP-2 ligand (protein, listed as Homo sapiens)
chain: MLVAGLLLWASLLTGAWPSFPTQDHLPATPRVRLSFKELKATGTAHFFNFLLNTTDYRILLKDEDHDRMYVGSKDYVLSLDLHDINREPLIIHWAASPQRIEECVLSGKDVNGECGNFVRLIQPWNRTHLYVCGTGAYNPMCTYVNRGRRAQATPWTQTQAVRGRGSRATDGALRPMPTAPRQDYIFYLEPERLESGKGKCPYDPKLDTASALINEELYAGVYIDFMGTDAAIFRTLGKQTAMRTDQYNSRWLNDPSFIHAELIPDSAERNDDKLYFFFRERSAEAPQSPAVYARIGRICLNDDGGHCCLVNKWSTFLKARLVCSVPGEDGIETHFDELQDVFVQQTQDVRNPVIYAVFTSSGSVFRGSAVCVYSMADIRMVFNGPFAHKEGPNYQWMPFSGKMPYPRPGTCPGGTFTPSMKSTKDYPDEVINFMRSHPLMYQAVYPLQRRPLVVRTGAPYRLTTIAVDQVDAADGRYEVLFLGTDRGTVQKVIVLPKDDQELEELMLEEVEVFKDPAPVKTMTISSKRQQLYVASAVGVTHLSLHRCQAYGAACADCCLARDPYCAWDGQACSRYTASSKRRSRRQDVRHGNPIRQCRGFNSNANKNAVESVQYGVAGSAAFLECQPRSPQATVKWLFQRDPGDRRREIRAEDRFLRTEQGLLLRALQLSDRGLYSCTATENNFKHVVTRVQLHVLGRDAVHAALFPPLSMSAPPPPGAGPPTPPYQELAQLLAQPEVGLIHQYCQGYWRHVPPSPREAPGAPRSPEPQDQKKPRNRRHHPPDT
modifications: His-Myc tag
notes: Human recombinant full-length His-Myc-tagged SEMA3F, secreted by transfected 293T cells and purified; class 3 semaphorin, NRP-2 ligand
VEGF promoter; SEMA3F 640 ng/ml pre-treatment 30 minutes, DFO 250 μM, 18 hours
  inhibition of DFO-induced VEGF promoter activity: 43%
VEGF promoter; SEMA3F 640 ng/ml, 18 hours culture in 1% O2
  reduction of hypoxia-induced VEGF promoter activity: 44%
VEGF promoter; SEMA3F 30 minutes prior to DFO
  VEGF promoter activity in 2DAkt transfected cells: failed to attenuate VEGF promoter activity
RhoA; U87MG cells overexpressing mTOR
  RhoA activity partially rescued (by): 55%
RhoA; control pcDNA3.1-transfected U87MG cells
  suppression of RhoA activity: 88%
[1]
  Akt (S473) and S6K phosphorylation: inhibited
